Patent US20190218277A1 (Chugai, published 2019)
Read-outs that look alike come from different tables or passages of the source.

T1: human FcγRIIb (human, UniProt P31994 43-217)
T1 construct: also called human FcγR2b
T1 sequence: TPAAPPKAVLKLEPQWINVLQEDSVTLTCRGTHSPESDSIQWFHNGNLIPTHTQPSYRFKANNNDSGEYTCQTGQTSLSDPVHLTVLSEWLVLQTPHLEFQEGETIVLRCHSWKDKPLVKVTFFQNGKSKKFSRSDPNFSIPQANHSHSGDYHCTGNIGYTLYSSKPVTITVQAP

T2: human FcγRIIIb (NA1) (human, UniProt O75015 17-200)
T2 construct: also called human FcγR3b allelic variant NA1
T2 chain: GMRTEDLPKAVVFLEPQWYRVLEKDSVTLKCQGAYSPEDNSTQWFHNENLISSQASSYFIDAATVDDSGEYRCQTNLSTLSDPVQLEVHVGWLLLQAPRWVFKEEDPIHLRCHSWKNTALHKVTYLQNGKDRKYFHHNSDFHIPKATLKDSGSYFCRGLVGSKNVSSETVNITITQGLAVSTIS

T3: mouse FcγRIV (mouse, UniProt A0A0B4J1G0 21-203)
T3 construct: also called mFcγRIV; mouse FcγR4
T3 sequence: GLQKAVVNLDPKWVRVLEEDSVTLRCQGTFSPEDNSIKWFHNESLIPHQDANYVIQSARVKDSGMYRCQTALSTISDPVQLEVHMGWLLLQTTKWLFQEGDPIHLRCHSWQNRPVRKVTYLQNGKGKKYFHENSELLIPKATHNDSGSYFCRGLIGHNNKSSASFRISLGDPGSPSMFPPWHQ

T4: mouse FcγRIII (mouse, UniProt P08508 31-215)
T4 construct: also called mFcγRIII; mouse FcγR3
T4 chain: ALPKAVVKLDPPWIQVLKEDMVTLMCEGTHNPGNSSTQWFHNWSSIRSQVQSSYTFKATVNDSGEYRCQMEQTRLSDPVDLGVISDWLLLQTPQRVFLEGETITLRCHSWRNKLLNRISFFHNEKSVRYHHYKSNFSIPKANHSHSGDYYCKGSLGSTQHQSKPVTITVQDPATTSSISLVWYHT

T5: mouse FcγRI (mouse, UniProt P26151 25-297)
T5 construct: also called mFcγRI; mouse FcγR1
T5 sequence: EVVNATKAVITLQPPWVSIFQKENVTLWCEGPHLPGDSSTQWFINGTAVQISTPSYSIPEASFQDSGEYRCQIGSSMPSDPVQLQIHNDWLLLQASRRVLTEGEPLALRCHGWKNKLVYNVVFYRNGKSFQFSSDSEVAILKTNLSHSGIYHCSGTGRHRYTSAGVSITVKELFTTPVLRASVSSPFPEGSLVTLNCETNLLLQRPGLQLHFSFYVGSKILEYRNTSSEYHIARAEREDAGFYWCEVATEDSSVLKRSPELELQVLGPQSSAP


Tests used:
[1] = target: T6, Recombinant soluble E protein (0.8E-His) from DENV-3 (DENV-3, UniProt P27915 281-673)
T6 construct: also called DENV-3 E protein; DV3

[2] = target: T7, Recombinant soluble E protein (0.8E-His) from DENV-4 (DENV-4, UniProt P09866 280-674)
T7 construct: also called DENV-4 E protein; DV4

[3] = target: T8, Recombinant soluble E protein (0.8E-His) from DENV-1 (DENV-1, UniProt P27909 281-675)
T8 construct: also called DENV-1 E protein; DV1

[4] = target: T8, Recombinant soluble E protein …; remark: listed apart in the source
[5] = target: T9, Recombinant soluble E protein (0.8E-His) from DENV-2 (DENV-2, UniProt P14340 281-675)
T9 construct: also called DENV-2 E protein; DV2

[6] = target: T9, Recombinant soluble E protein …; test: SPR, Biacore T200
[7] = target: T7, Recombinant soluble E protein …; test: SPR, Biacore T200
[8] = target: T6, Recombinant soluble E protein …; remark: listed apart in the source
[9] = target: T1, human FcγRIIb; test: SPR (Biacore T200, pH 7.4, 25 °C): His-tagged FcγR captured by anti-His antibody; antibody injected at 100 nM alone (Ab alone) or as 1:1 complex with trimeric CD154 (CD154 IC); binding level / capture level [D]
[10] = target: T10, human FcγRIIIa (158V) (human, UniProt P08637 17-208); test: SPR (Biacore T200, pH 7.4, 25 °C): His-tagged FcγR captured by anti-His antibody; antibody injected at 100 nM alone (Ab alone) or as 1:1 complex with trimeric CD154 (CD154 IC); binding level / capture level [F]
T10 construct: also called human FcγR3a allelic variant 158V

[11] = target: T2, human FcγRIIIb (NA1); test: SPR (Biacore T200, pH 7.4, 25 °C): His-tagged FcγR captured by anti-His antibody; antibody injected at 100 nM alone (Ab alone) or as 1:1 complex with trimeric CD154 (CD154 IC); binding level / capture level [G]
[12] = target: T3, mouse FcγRIV; test: SPR (Biacore T200, pH 7.4, 25 °C): His-tagged FcγR captured by anti-His antibody; antibody injected at 100 nM alone (Ab alone) or as 1:1 complex with trimeric CD154 (CD154 IC); binding level / capture level [D]
[13] = target: T4, mouse FcγRIII; test: SPR (Biacore T200, pH 7.4, 25 °C): His-tagged FcγR captured by anti-His antibody; antibody injected at 100 nM alone (Ab alone) or as 1:1 complex with trimeric CD154 (CD154 IC); binding level / capture level [C]
[14] = target: T5, mouse FcγRI; test: SPR (Biacore T200, pH 7.4, 25 °C): His-tagged FcγR captured by anti-His antibody; antibody injected at 100 nM alone (Ab alone) or as 1:1 complex with trimeric CD154 (CD154 IC); binding level / capture level [A]
[15] = target: T11, human FcγRIa (human, UniProt P12314 16-292); test: as above
T11 construct: also called human FcγR1a
T11 sequence (P12314 16-292 limits assumed): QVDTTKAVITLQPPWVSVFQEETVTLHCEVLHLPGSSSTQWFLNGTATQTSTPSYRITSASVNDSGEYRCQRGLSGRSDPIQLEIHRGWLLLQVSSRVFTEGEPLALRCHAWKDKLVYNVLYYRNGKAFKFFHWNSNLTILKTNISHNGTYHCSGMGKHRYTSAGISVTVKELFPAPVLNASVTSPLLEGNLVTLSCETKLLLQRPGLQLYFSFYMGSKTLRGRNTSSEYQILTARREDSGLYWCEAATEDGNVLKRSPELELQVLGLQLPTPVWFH

Row | Binder | Kd [1] | Kd [2] | Kd [3] | Kd [4] | Kd [5] | further results
1 | DG_3CH-SG182/3CL-SK1 (antibody, human IgG1, kappa, V domains shown) VH: QVQLVQSGPDVEKPGASVKVSCKASGYTFTSNYIHWVRQAPGQGLEWMGVINPRGGSTASAQKFQGRITMTRDTSTSTVYMELSSLRSDDTAVYYCARGGRALFYDSYTTPRDGGSWWFDPWGQGSLVTVSS VL: DIQLTQSPSSLSASVGDRVTFTCQASQDIRKYLNWYQQKPGKAPKLLIYDASNLKTGVPSRFSGSGSGTDFTFTISSLQPEDVATYYCQQFDDLPITFGQGTRLQIKR | 6.07 nM | 16.9 nM | 32.1 nM | 22.5 nM | – | –
2 | DG_3CH955-SG182/3CL-SK1 (antibody, V domains shown) VH: QVQLVQSGPDVEKPGASVKVSCKASGYTFTSNYIHWVRQAPGQGLEWMGVINPRGGSRRSAQKFQGRITMTRDTSTSTVYMELSSLRSEDTAVYYCARGGRALFYDSYTTPRDLGSWWFDPWGQGSLVTVSS VL: DIQLTQSPSSLSASVGDRVTFTCQASQDIRKYLNWYQQKPGKAPKLLIYDASNLKTGVPSRFSGSGSGTDFTFTISSLQPEDVATYYCQQFDDLPITFGQGTRLQIKR | 0.205 nM | 7.8 nM | 1.13 nM | – | 0.794 nM | –
3 | DG_3CH954-SG182/3CL-SK1 (antibody, V domains shown) VH: QVQLVQSGPDVEKPGASVKVSCKASGYTFTSNYIHWVRQAPGQGLEWMGVINPRGGSRRSAQKFQGRITMTRDTSTSTVYMELSSLRSEDTAVYYCARGGRALFYDSYTTPRDDGSWWFDPWGQGSLVTVSS VL: DIQLTQSPSSLSASVGDRVTFTCQASQDIRKYLNWYQQKPGKAPKLLIYDASNLKTGVPSRFSGSGSGTDFTFTISSLQPEDVATYYCQQFDDLPITFGQGTRLQIKR | 0.124 nM | 4.35 nM | 0.887 nM | – | 0.122 nM | –
4 | DG_3CH953-SG182/3CL499-SK1 (antibody, V domains shown) VH: QVQLVQSGPDVEKPGASVKVSCKASGYTFTSNYIHWVRQAPGQGLEWMGVINPRGGSRRSAQKFQGRITMTRDTSTSTVYMELSSLRSEDTAVYYCARGGRALFYDSYTTPFDGGSWWFDPWGQGSLVTVSS VL: DIQLTQSPSSLSASVGDRVTFTCQASQDIRKYLNWYQQKPGKAPKLLIYDASNLKFGVPSRFSGSGSGTDFTFTISSLQPEDVATYYCQQFDALPITFGQGTRLQIKR | 0.211 nM | 5.99 nM | 1.46 nM | – | 0.905 nM | –
5 | DG_3CH1000-SG1106/3CL-SK1 (antibody) heavy: QVQLVQSGPDVEKPGASVKVSCKASGYTFTSYYMHWVRQAPGQGLEWMGVINPRGGSRRSAQKFQGRITMTRDTSTSTVYMELSSLRSEDTAVYYCARGGRALFYDSYTTPFDGGSWWFDPWGQGSLVTVSSASTKGPSVFPLAPSSKSTSGGTAALGCLVKDYFPEPVTVSWNSGALTSGVHTFPAVLQSSGLYSLSSVVTVPSSSLGTQTYICNVNHKPSNTKVDKRVEPKSCDKTHTCPPCPAPEAAGGPSVFLFPPKPKDTLMISRTPEVTCVVVDVSHEDPEVKFNWYVDGVEVHNAKTKPREEQYNSTYRVVSVLTVLHQDWLNGKEYKCKVSNAALPAPISKTISKAKGQPREPQVYTLPPSREEMTKNQVSLTCLVKGFYPSDIAVEWESNGQPENNYKTTPPVLDSDGSFFLYSKLTVDKSRWQQGNVFSCSVLHEALHAHYTRKELSLSP light: not shown | – | – | – | 1.84 nM | – | binding result [6]: binds; binding result [7]: binds; Kd [8]: 0.299 pM
6 | DG_3CH953-SG1106/3CL012-SK1 (antibody) heavy: QVQLVQSGPDVEKPGASVKVSCKASGYTFTSNYIHWVRQAPGQGLEWMGVINPRGGSRRSAQKFQGRITMTRDTSTSTVYMELSSLRSEDTAVYYCARGGRALFYDSYTTPFDGGSWWFDPWGQGSLVTVSSASTKGPSVFPLAPSSKSTSGGTAALGCLVKDYFPEPVTVSWNSGALTSGVHTFPAVLQSSGLYSLSSVVTVPSSSLGTQTYICNVNHKPSNTKVDKRVEPKSCDKTHTCPPCPAPEAAGGPSVFLFPPKPKDTLMISRTPEVTCVVVDVSHEDPEVKFNWYVDGVEVHNAKTKPREEQYNSTYRVVSVLTVLHQDWLNGKEYKCKVSNAALPAPISKTISKAKGQPREPQVYTLPPSREEMTKNQVSLTCLVKGFYPSDIAVEWESNGQPENNYKTTPPVLDSDGSFFLYSKLTVDKSRWQQGNVFSCSVLHEALHAHYTRKELSLSP light: not shown | – | – | – | 1.89 nM | – | binding result [6]: binds; binding result [7]: binds; Kd [8]: 10.6 pM
7 | EFT (antibody, human IgG1, kappa, also called Anti-CD154 antibody (SLAPH0336a/SLAPL0336a) with Fc variant EFT (SG1087); SG1087) heavy chain: EVQLVESGGGSVKPGGSLKLSCAASGFTFSDHYMYWVRQTPEKRLEWVAIISGGGSYTSYPDSMKGRFTISRDNAKNILHLQMSSLKSEDTAMYYCTRESNGKPGFAYWGQGTLVTVSAASTKGPSVFPLAPSSKSTSGGTAALGCLVKDYFPEPVTVSWNSGALTSGVHTFPAVLQSSGLYSLSSVVTVPSSSLGTQTYICNVNHKPSNTKVDKRVEPKSCDKTHTCPPCPAPELLGGPSVFLFPPKPKDTLMISRTPEVTCVVVDVEFEDPEVKFNWYVDGVEVHNAKTKPREEQYNSTYRVVSVLTVLHQDWLNGKEYKCKVTNKALPAPIEKTISKAKGQPREPQVYTLPPSREEMTKNQVSLTCLVKGFYPSDIAVEWESNGQPENNYKTTPPVLDSDGSFFLYSKLTVDKSRWQQGNVFSCSVMHEALHNHYTQKSLSLSP light chain: not shown | – | – | – | – | – | binding result [9]: binds; binding result [10]: binds; binding result [11]: no binding (tested: 100 nM); binding result [12]: binds; binding result [13]: binds; binding result [14]: binds; binding result [15]: binds
